{
  "source": "patent US12697368B2",
  "about": "“TSG6 polypeptide fragment for dry eye disease” (The University of Manchester, priority 2019, dated 2026)",
  "key": {"[1]": {"experiment": "Aggregation state in PBS by dynamic light scattering (DLS)", "type": "physicochemical", "experimental": "(§1) The solubility and aggregation state of full-length TSG-6 and LINK_TSG6 in PBS were compared using UV spectrophotometry and dynamic light scattering (DLS) at a range of concentrations. […] The full-length protein had much lower solubility with less than 40% of the protein remaining in solution at 0.4, 0.8, 1.6. and 3.2 mg/ml."}, "rat eyes": {"test_system": "rat eyes", "conditions": "ethanol application and mechanical debridement; cited from earlier work"}, "NOD.B10.H2b mice": {"test_system": "NOD.B10.H2b mice", "conditions": "recombinant TSG-6 (0.1%) topical 4 times a day, 1 week; vs 0.05% cyclosporine twice a day; cited from earlier work"}, "[2]": {"conditions": "interaction is cooperative; cited from earlier work"}, "[3]": {"experiment": "Solubility in PBS by UV spectrophotometry", "type": "physicochemical", "experimental": "as §1"}},
  "data": [
    {"substance": "full-length TSG-6: full length human recombinant TSG-6 protein (R&D Systems), ~35 kDa secreted product of TNF-stimulated gene-6", "values": [
      {"measurement": "aggregation", "setting": "[1]; 0.2, 0.4, 0.8, 1.6 and 3.2 mg/ml", "value": "highly aggregated"},
      {"measurement": "size of aggregates formed", "setting": "[1]; 1.6 and 3.2 mg/ml, DLS measurements out of range", "value": "greater than 25 million"},
      {"measurement": "corneal opacity as compared to a PBS control", "setting": "rat eyes", "value": "reduced"},
      {"measurement": "neovascularization as compared to a PBS control", "setting": "rat eyes", "value": "reduced"},
      {"measurement": "efficacy in inflammation mediated dry eye compared with cyclosporine eye drops", "setting": "NOD.B10.H2b mice", "value": "as effective"},
      {"measurement": "binding to HA compared with LINK_TSG6", "setting": "[2]", "value": "binds more effectively"},
      {"measurement": "protein remaining in solution", "setting": "[3]; PBS, 0.4, 0.8, 1.6 and 3.2 mg/ml", "value": "less than 40%"},
      {"measurement": "solubility and stability in solution", "setting": "[3]; general statement", "value": "insoluble and prone to aggregation"}
    ]}
  ]
}
